Laboratory results reported in paper PMC12416549 (2024).

T1: TNFR1 (Homo sapiens, UniProt P19438)
T1 chain: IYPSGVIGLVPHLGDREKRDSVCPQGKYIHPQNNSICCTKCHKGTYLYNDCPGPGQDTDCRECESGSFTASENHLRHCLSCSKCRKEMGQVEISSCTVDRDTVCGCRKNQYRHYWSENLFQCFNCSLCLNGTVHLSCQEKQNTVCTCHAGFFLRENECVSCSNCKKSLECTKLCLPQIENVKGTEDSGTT


Biological target: T1, TNFR1
Test: yeast display SC50

Row | Binder | apparent Kd (screen) [nM]
1 | A17M (designed binder) MTLQELLREEALRRAEMEAFRYALELLAEKFPEQKEYLLDLAEEIESQIRSLSGVDVEDVRKFLDKEWAWVKELLAEHPAELAEVEAARAARLAELRAEVEAKVAA | 0.446
2 | L12P (designed binder) MTLQELLREEAPRRAEAEAFRYALELLAEKFPEQKEYLLDLAEEIESQIRSLSGVDVEDVRKFLDKEWAWVKELLAEHPAELAEVEAARAARLAELRAEVEAKVAA | 1.05
3 | A102H (designed binder) MTLQELLREEALRRAEAEAFRYALELLAEKFPEQKEYLLDLAEEIESQIRSLSGVDVEDVRKFLDKEWAWVKELLAEHPAELAEVEAARAARLAELRAEVEHKVAA | 1.16
4 | R61K (designed binder) MTLQELLREEALRRAEAEAFRYALELLAEKFPEQKEYLLDLAEEIESQIRSLSGVDVEDVKKFLDKEWAWVKELLAEHPAELAEVEAARAARLAELRAEVEAKVAA | 0.446
5 | A98N (designed binder) MTLQELLREEALRRAEAEAFRYALELLAEKFPEQKEYLLDLAEEIESQIRSLSGVDVEDVRKFLDKEWAWVKELLAEHPAELAEVEAARAARLAELRNEVEAKVAA | 0.869
6 | E86G (designed binder) MTLQELLREEALRRAEAEAFRYALELLAEKFPEQKEYLLDLAEEIESQIRSLSGVDVEDVRKFLDKEWAWVKELLAEHPAELAEVGAARAARLAELRAEVEAKVAA | 0.539
7 | L39P (designed binder) MTLQELLREEALRRAEAEAFRYALELLAEKFPEQKEYLPDLAEEIESQIRSLSGVDVEDVRKFLDKEWAWVKELLAEHPAELAEVEAARAARLAELRAEVEAKVAA | 5.84
8 | E10M (designed binder) MTLQELLREMALRRAEAEAFRYALELLAEKFPEQKEYLLDLAEEIESQIRSLSGVDVEDVRKFLDKEWAWVKELLAEHPAELAEVEAARAARLAELRAEVEAKVAA | 2.48
9 | R50H (designed binder) MTLQELLREEALRRAEAEAFRYALELLAEKFPEQKEYLLDLAEEIESQIHSLSGVDVEDVRKFLDKEWAWVKELLAEHPAELAEVEAARAARLAELRAEVEAKVAA | 0.539
10 | L64D (designed binder) MTLQELLREEALRRAEAEAFRYALELLAEKFPEQKEYLLDLAEEIESQIRSLSGVDVEDVRKFDDKEWAWVKELLAEHPAELAEVEAARAARLAELRAEVEAKVAA | 26.9
11 | A94K (designed binder) MTLQELLREEALRRAEAEAFRYALELLAEKFPEQKEYLLDLAEEIESQIRSLSGVDVEDVRKFLDKEWAWVKELLAEHPAELAEVEAARAARLKELRAEVEAKVAA | 0.653
12 | V104D (designed binder) MTLQELLREEALRRAEAEAFRYALELLAEKFPEQKEYLLDLAEEIESQIRSLSGVDVEDVRKFLDKEWAWVKELLAEHPAELAEVEAARAARLAELRAEVEAKDAA | 0.718
13 | T2M (designed binder) MMLQELLREEALRRAEAEAFRYALELLAEKFPEQKEYLLDLAEEIESQIRSLSGVDVEDVRKFLDKEWAWVKELLAEHPAELAEVEAARAARLAELRAEVEAKVAA | 0.49
14 | R89C (designed binder) MTLQELLREEALRRAEAEAFRYALELLAEKFPEQKEYLLDLAEEIESQIRSLSGVDVEDVRKFLDKEWAWVKELLAEHPAELAEVEAACAARLAELRAEVEAKVAA | 0.653
15 | P79K (designed binder) MTLQELLREEALRRAEAEAFRYALELLAEKFPEQKEYLLDLAEEIESQIRSLSGVDVEDVRKFLDKEWAWVKELLAEHKAELAEVEAARAARLAELRAEVEAKVAA | 0.593
16 | A76I (designed binder) MTLQELLREEALRRAEAEAFRYALELLAEKFPEQKEYLLDLAEEIESQIRSLSGVDVEDVRKFLDKEWAWVKELLIEHPAELAEVEAARAARLAELRAEVEAKVAA | 0.653
17 | I45C (designed binder) MTLQELLREEALRRAEAEAFRYALELLAEKFPEQKEYLLDLAEECESQIRSLSGVDVEDVRKFLDKEWAWVKELLAEHPAELAEVEAARAARLAELRAEVEAKVAA | 2.48
18 | K66S (designed binder) MTLQELLREEALRRAEAEAFRYALELLAEKFPEQKEYLLDLAEEIESQIRSLSGVDVEDVRKFLDSEWAWVKELLAEHPAELAEVEAARAARLAELRAEVEAKVAA | 0.49
19 | E33C (designed binder) MTLQELLREEALRRAEAEAFRYALELLAEKFPCQKEYLLDLAEEIESQIRSLSGVDVEDVRKFLDKEWAWVKELLAEHPAELAEVEAARAARLAELRAEVEAKVAA | 0.593
20 | E43S (designed binder) MTLQELLREEALRRAEAEAFRYALELLAEKFPEQKEYLLDLASEIESQIRSLSGVDVEDVRKFLDKEWAWVKELLAEHPAELAEVEAARAARLAELRAEVEAKVAA | 0.49
21 | E77G (designed binder) MTLQELLREEALRRAEAEAFRYALELLAEKFPEQKEYLLDLAEEIESQIRSLSGVDVEDVRKFLDKEWAWVKELLAGHPAELAEVEAARAARLAELRAEVEAKVAA | 0.593
22 | W68L (designed binder) MTLQELLREEALRRAEAEAFRYALELLAEKFPEQKEYLLDLAEEIESQIRSLSGVDVEDVRKFLDKELAWVKELLAEHPAELAEVEAARAARLAELRAEVEAKVAA | 0.539
23 | L75F (designed binder) MTLQELLREEALRRAEAEAFRYALELLAEKFPEQKEYLLDLAEEIESQIRSLSGVDVEDVRKFLDKEWAWVKELFAEHPAELAEVEAARAARLAELRAEVEAKVAA | 1.27
24 | D40E (designed binder) MTLQELLREEALRRAEAEAFRYALELLAEKFPEQKEYLLELAEEIESQIRSLSGVDVEDVRKFLDKEWAWVKELLAEHPAELAEVEAARAARLAELRAEVEAKVAA | 0.593
25 | R8E (designed binder) MTLQELLEEEALRRAEAEAFRYALELLAEKFPEQKEYLLDLAEEIESQIRSLSGVDVEDVRKFLDKEWAWVKELLAEHPAELAEVEAARAARLAELRAEVEAKVAA | 0.49
26 | E25T (designed binder) MTLQELLREEALRRAEAEAFRYALTLLAEKFPEQKEYLLDLAEEIESQIRSLSGVDVEDVRKFLDKEWAWVKELLAEHPAELAEVEAARAARLAELRAEVEAKVAA | 0.405
